Assays:
DMF5 TCR [1] = assay: flow cytometry of Jurkat/MA cells transduced with DMF5, stained with the pooled barcoded tetramer library
DMF5 TCR [2] = molecular target: DMF5 TCR

Row | percent DMF5 positive cells (DMF5 TCR [1]) [%] | Substance | percent tetramer-positive cells (DMF5 TCR [2]) [%]
1 | 33 | MART-1/HLA-A*02:01 tetramer (from UniProt P61769 21-119) (peptide-MHC) | –
2 | – | CMVpp65/HLA-A*02:01 tetramer (from UniProt P61769 21-119) (peptide-MHC) | 0.1

— patent publication US20210371499A1
